The chains are these.
B1: OR4K15 (parent)
chain: GUUAACGGUCAUAGGCCAUGGAAACUAGGAGCACCAUUUCGCUGCCAGUGAAGAAAUGAACAAAGAAAAUCUGGGCCAGGCAGGCAUCAAAAGAAAUAGUCUUGCGCUCAACCAGAAAGUCUGUAAUCAUUUUAAGGGUA

The text below walks through data of the RNAGym collection of RNA variant scans (doi:10.7554/elife.90254).

The variants in the series derive from B1. The series is described as follows: self-cleavage, relative activity (ratio to wild type); higher = more cleavage; in vitro, sequencing; the parent is a self-cleaving ribozyme.
As for U108C A125U, the self-cleavage was 0.01. For the variant A110U A114G, the self-cleavage stood at 0.49.

In the case of A110U A114U, the self-cleavage turned out to be 0.04. Turning to A110U U124A, the self-cleavage turned out to be 0.9. U108C A126C: the self-cleavage was found to be 0.01. Regarding A116G A140C, the self-cleavage was 0.63. Consider G104C, for which the self-cleavage worked out at 0.02. For the variant G104A, the self-cleavage was 0.04. For the variant G104U, the self-cleavage is 0.02.

Turning to A114G U132A, the self-cleavage is 0.7. Next, A114G U132C: 0.24. For the variant A110U U120C, the self-cleavage was 0.08. As to A110C U132A, the self-cleavage came out at 0.25. For A114C G137A, the self-cleavage came to 0.07.

With C113U U120C, the self-cleavage was 0.04.

Take U108A U127C: the self-cleavage worked out at 0. As to C112G A135U, the self-cleavage was found to be 0.01. Turning to C105U U122C, the self-cleavage is 0.11. Next, C105U U122A: 0.27; A111U A117G: 0.06; C112G U122A: 0.05. For the variant U103C A129G, the self-cleavage is 0.56. For the variant A110C A116G, the self-cleavage was 0.26. Then C105U U120C, with 0.05; and A111U U124C, with 0.08; and G104A A110U, with 0.02. Then A114G U124C, with 0.07; and A114G U124G, with 0.21. Next, A114U U127C: 0.03. Consider U103C G138C, for which the self-cleavage stood at 0.95. Take G106A U124C: the self-cleavage is 0.01. For the variant A110G G137A, the self-cleavage came out at 0.18. Next, G106A U108C: 0; U103C U131C: 0.49.

Consider U108C C112U, for which the self-cleavage amounted to 0.01. Next, A116G G138A: 0.8. Consider U108G A126G, for which the self-cleavage is 0.

A111C A135U: the self-cleavage was found to be 0.03.

Regarding A111U A129G, the self-cleavage came out at 0.19. A116G A117U: the self-cleavage was 0.44. Turning to G106A U122A, the self-cleavage was 0.01.

With A116G A118G, the self-cleavage amounted to 0.22. On to A116G A135G, for which the self-cleavage turned out to be 0.5. On to A111U U139A, for which the self-cleavage turned out to be 0.16. On to U108C A118U, for which the self-cleavage came out at 0. Regarding U108C A118G, the self-cleavage is 0.01.

Consider U108C G137A, for which the self-cleavage was 0.01.

Take A114G U131C: the self-cleavage stood at 0.15. Then A116U A118G, with 0.07. Next, U103C G136U: 1.12; C109U A114G: 0.2; A116G U132C: 0.54.

As for A111G G138U, the self-cleavage worked out at 0.01.

On to U108A G123C, for which the self-cleavage stood at 0.01.

As for U108A G123U, the self-cleavage turned out to be 0.01.

In the case of A117U U131C, the self-cleavage was found to be 1.01. For A117U U131G, the self-cleavage is 1.38. Then A110G A117U, with 0.06; and A118C U130C, with 0.93. As to A114G U127A, the self-cleavage turned out to be 0.47. A111G U120C: the self-cleavage was determined as 0.01. In the case of U108C U133A, the self-cleavage worked out at 0.01.

As for U108C U133C, the self-cleavage worked out at 0.02. Next, G106A U131C: 0.03.

For the variant U103C A118G, the self-cleavage came out at 0.22. Next, A116C U130C: 0.06. On to A111G U122C, for which the self-cleavage was found to be 0.01. Next, A110G U132A: 0.19; A116U U127C: 0.23; G115A C128U: 0.06.

In the case of U108A A116G, the self-cleavage came to 0.01.

Consider A116G A134C, for which the self-cleavage was determined as 0.7. Next, A116G A134G: 0.59; U103G G137U: 0.05. Next, U103G G137A: 0.1; A111G A126U: 0.01; A114G A134G: 0.63. Next, A116U: 0.23. In the case of A116C, the self-cleavage stood at 0.13. Regarding A116G, the self-cleavage is 0.47. Next, A116U U122C: 0.21; G104A A125G: 0.01.

With A114G A118C, the self-cleavage stood at 0.11. Then A114G A118U, with 0.04; and U103C U120A, with 1.55.

On to C107G, for which the self-cleavage came out at 0.02. Turning to C107A, the self-cleavage is 0.03. In the case of C107U, the self-cleavage came to 0.02. Then A114U G123A, with 0.11; and A116G A125G, with 0.23; and C112U A116G, with 0. As for A110U C113U, the self-cleavage worked out at 0.02.

Take G106C A116G: the self-cleavage stood at 0.01. Take A117G A134G: the self-cleavage was determined as 0.61.

On to A110G A125C, for which the self-cleavage came to 0.17.

Turning to A118G A125U, the self-cleavage came out at 1.22. Then A118G A125G, with 0.1; and C105U A135U, with 0.28. With A110G A116G, the self-cleavage stood at 0.06. For the variant C112A A140G, the self-cleavage stood at 0.02. Next, A110U U131C: 0.65. Then A116C A117G, with 0.04. C109U U130C: the self-cleavage turned out to be 0.35.

As for C109U U130A, the self-cleavage came out at 0.25. Then A110U G137A, with 1.55.

With C112U U122A, the self-cleavage stood at 0.01.

For C109A A140G, the self-cleavage turned out to be 0.47. In the case of U108A U120C, the self-cleavage was determined as 0.01. With U108A U120A, the self-cleavage is 0.02.

On to A118G G137A, for which the self-cleavage is 0.86. Next, U108A A114U: 0; A111U A126C: 0.06; U108A U130C: 0.01. Turning to A114G A126G, the self-cleavage turned out to be 0.28. A114G A126U: the self-cleavage worked out at 0.46. With C109U U120C, the self-cleavage came to 0.15. Consider U108A A110G, for which the self-cleavage came to 0.01. Next, A114U A140U: 0.1; C105G G136U: 0.02; A116G U130A: 0.51. Next, A111G G136U: 0.02; A118G U120G: 0.59; A118G U120A: 2.61. Consider U108C U122C, for which the self-cleavage turned out to be 0.01. As to U108C U122A, the self-cleavage worked out at 0.01. Then U108C U122G, with 0; and G115A A118G, with 0.04. Next, C105U A111U: 0.01; C105U U108C: 0.02; A117G A118U: 1.72. Then A117G A118G, with 0.59; and A116G U120C, with 0.27; and A116U A134U, with 0.33. As for A114C U124C, the self-cleavage was found to be 0.03.

Consider A114G U120A, for which the self-cleavage is 0.2.

With A116C U127C, the self-cleavage stood at 0.03. Regarding U108C U131C, the self-cleavage turned out to be 0.01. Turning to C112U A129G, the self-cleavage was found to be 0.01. Next, A111G A135G: 0.02; A110G A126G: 0.1; U103C A134U: 0.78. Next, U103C A134G: 1.49; C105A C112U: 0; G106U U127C: 0.01. Then C113A U120C, with 0.02; and A117U A118G, with 0.97; and A117U A118C, with 0.51. As for A114G C128U, the self-cleavage was determined as 0.11.

With U103C U132A, the self-cleavage was 1.03. Next, A110G A140G: 0.15; A110G A140C: 0.14. Next, A111G U127C: 0.01; A111G U127G: 0.02. Then A111G U127A, with 0.01; and A114U A125G, with 0; and U108C U130A, with 0. With G106A A126G, the self-cleavage turned out to be 0. For G115A A134G, the self-cleavage came to 0.12. Then U103C A140G, with 1.38; and A116G A126U, with 1.04. Next, A110C U122G: 0.56. C112G U124C: the self-cleavage was 0. Then A111G U124G, with 0.01. Next, C109A A118C: 0.14; A117U A129U: 0.62; A117G C128A: 1.07. In the case of A117G U122C, the self-cleavage amounted to 1.05.
